The test concerns the target T1, ASK1 (Homo sapiens, UniProt Q99683).
T1 sequence (Q99683 1-1374): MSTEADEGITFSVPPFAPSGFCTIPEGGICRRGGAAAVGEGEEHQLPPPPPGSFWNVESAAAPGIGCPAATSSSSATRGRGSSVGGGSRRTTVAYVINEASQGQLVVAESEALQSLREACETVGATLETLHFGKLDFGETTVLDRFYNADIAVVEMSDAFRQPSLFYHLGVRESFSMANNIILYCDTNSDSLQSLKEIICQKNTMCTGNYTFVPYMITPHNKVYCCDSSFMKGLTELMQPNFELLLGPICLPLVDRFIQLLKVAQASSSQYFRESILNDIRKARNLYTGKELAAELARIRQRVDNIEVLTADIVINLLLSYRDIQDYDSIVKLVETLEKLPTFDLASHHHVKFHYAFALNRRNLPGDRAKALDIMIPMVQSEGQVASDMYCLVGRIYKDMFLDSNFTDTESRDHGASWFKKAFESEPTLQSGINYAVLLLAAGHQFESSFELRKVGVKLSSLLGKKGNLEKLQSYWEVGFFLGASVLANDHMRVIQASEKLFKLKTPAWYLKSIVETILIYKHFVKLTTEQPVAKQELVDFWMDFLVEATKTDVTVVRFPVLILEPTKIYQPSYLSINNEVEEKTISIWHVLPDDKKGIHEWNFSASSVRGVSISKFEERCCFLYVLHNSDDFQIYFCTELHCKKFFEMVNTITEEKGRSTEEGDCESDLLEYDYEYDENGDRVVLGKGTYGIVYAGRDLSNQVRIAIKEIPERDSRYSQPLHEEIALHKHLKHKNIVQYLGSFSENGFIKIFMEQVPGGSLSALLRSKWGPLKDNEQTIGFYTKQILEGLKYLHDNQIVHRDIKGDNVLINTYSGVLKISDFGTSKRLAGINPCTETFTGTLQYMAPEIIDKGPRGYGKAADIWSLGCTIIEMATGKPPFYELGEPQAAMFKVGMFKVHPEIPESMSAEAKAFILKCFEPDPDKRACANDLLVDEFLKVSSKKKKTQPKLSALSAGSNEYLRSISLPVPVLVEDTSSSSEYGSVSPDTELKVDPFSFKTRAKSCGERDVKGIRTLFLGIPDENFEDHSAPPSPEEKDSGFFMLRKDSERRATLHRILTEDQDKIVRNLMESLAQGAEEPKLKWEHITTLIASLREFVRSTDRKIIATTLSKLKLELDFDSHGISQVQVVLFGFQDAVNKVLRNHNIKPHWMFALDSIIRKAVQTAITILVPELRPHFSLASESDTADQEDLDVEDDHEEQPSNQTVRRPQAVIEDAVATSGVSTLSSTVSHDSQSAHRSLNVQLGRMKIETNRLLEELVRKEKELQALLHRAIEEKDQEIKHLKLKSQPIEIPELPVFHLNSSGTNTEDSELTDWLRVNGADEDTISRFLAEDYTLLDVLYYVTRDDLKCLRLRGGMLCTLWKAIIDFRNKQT
The experiment in a line: GST pull-down, GST-Gadd45β beads with in vitro translated 35S-labeled ASK1. More on the design: plasmids encoding full-length (FL) human ASK1, MEKK4, JNKK1, and JNKK2; made in house; host or cells: TNT coupled reticulocyte lysate (Promega), in vitro transcription/translation from pBS. The class given is binding. As to the method:
To confirm the above interactions, in vitro, GST pull-down experiments were performed. pBluescript (pBS) plasmids encoding full-length (FL) human ASK1, MEKK4, JNKK1, and JNKK2, or polypeptides derived from the amino- or carboxy-terminal portions of ASK1 (i.e. N-ASK1, spanning from amino acids 1 to 756, and C-ASK1, spanning from amino acids 648 to 1375) were transcribed and translated in vitro using the TNT coupled retyculocyte lysate system (Promega) in the presence of ^35S-methionine. 5 μl of each translation mix were incubated, in vitro, with sepharose-4B beads that had been coated with either purified glutathione-S-transferase (GST) polypeptides or GST-Gadd45β proteins. The latter proteins contained FL murine Gadd45β directly fused to GST. Binding assays were performed according to standard procedures, and ^35S-labeled proteins that bound to beads, as well as 2 μl of each in vitro translation mix (input), were then resolved by SDS polyacrylamide gel electrophoresis. Asterisks indicate the intact translated products. […] Thus, GST pull-down experiments confirmed the strong interaction between Gadd45β and JNKK2 observed in vivo, as well as the weaker interactions of Gadd45β with other kinases in the JNK pathway. These assays also uncovered a weak association between Gadd45β and JNKK1. […]

B1: GST-Gadd45β: full-length murine Gadd45β directly fused to GST, purified from E. coli (protein)
chain: MTLEELVASDNAVQKMQAVTAAVEQLLVAAQRQDRLTVGVYEAAKLMNVDPDSVVLCLLAIDEEEEDDIALQIHFTLIQSFCCDNDIDIVRVSGMQRLAQLLGEPAETLGTTEARDLHCLLVTNCHTDSWKSQGLVEVASYCEESRGNNQWVPYISLEER
modifications: left off: a dimerising Fc or GST
notes: full-length murine Gadd45β directly fused to GST, purified from E. coli
Regarding B1, the “association with ASK1” value is “less avidly than with JNKK2”.

The values are drawn from patent US7326418B2, “Identification of novel factors that block programmed cell death or apoptosis by targeting JNK” (University of Chicago, priority 2001, dated 2008).
